According to patent US20030219427A1, “TPL-2/COT kinase and methods of use” (priority 1998, published 2003):
* marks the point of attachment. Biotin = O=C1N[C@H]2[C@H](CS[C@H]2CCCCC(=O)*)N1

What was measured:
[1] = biological target: endogenous NF-κB1 p105 (HeLa, Jurkat and 293 cells) (UniProt P19838); assay: cell-based or functional assay
[2] = biological target: T1, endogenous p105 (mouse 3T3 fibroblasts) (mouse, UniProt P25799 1-971); assay: anti-TPL-2 immunoprecipitation from lysates of wild type mouse 3T3 fibroblasts, Western blot
T1 sequence (looked up): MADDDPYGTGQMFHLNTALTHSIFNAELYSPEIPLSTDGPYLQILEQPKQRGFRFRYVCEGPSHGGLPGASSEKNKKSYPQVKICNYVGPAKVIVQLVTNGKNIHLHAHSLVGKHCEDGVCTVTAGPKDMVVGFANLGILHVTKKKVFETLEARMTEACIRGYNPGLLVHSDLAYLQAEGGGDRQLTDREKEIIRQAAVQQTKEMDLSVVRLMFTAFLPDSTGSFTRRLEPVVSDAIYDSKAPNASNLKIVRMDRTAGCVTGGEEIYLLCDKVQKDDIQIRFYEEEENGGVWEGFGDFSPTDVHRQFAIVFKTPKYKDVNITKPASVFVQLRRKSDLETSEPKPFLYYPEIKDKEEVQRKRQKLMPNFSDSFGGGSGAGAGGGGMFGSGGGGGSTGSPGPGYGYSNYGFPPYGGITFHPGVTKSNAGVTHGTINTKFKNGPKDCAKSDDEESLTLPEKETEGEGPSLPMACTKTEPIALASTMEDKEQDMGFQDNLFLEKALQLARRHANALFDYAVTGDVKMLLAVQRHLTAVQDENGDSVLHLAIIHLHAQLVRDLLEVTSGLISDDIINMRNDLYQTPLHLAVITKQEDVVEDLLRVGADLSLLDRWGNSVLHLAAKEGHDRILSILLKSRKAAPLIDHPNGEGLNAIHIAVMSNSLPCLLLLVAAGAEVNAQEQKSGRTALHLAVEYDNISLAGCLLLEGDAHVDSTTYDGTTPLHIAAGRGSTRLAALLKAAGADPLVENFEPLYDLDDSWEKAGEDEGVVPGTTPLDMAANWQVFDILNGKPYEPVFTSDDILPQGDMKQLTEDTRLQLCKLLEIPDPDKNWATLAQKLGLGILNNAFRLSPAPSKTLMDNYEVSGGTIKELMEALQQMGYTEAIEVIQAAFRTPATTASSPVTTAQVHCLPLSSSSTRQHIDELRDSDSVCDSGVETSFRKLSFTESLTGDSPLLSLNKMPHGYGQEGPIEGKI
Description: (5.5.c) To determine whether p105 regulates the steady-state levels of endogenous TPL-2 protein, cell lysates were prepared from 3T3 fibroblasts derived from wild type and NF-κB1-deficient mice. TPL-2 was readily detected by Western blotting of anti-TPL-2 immunoprecipitates from wild type fibroblasts and was associated with endogenous p105.

recombinant p105 541-802 = biological target: T2, recombinant p105 541-802 (Homo sapiens (Human), UniProt P19838 540-801); assay: surface plasmon resonance (BIAcore), biotinylated peptide on streptavidin chip
T2 construct: Made in E. coli as a GST fusion and cleaved from GST
T2 sequence: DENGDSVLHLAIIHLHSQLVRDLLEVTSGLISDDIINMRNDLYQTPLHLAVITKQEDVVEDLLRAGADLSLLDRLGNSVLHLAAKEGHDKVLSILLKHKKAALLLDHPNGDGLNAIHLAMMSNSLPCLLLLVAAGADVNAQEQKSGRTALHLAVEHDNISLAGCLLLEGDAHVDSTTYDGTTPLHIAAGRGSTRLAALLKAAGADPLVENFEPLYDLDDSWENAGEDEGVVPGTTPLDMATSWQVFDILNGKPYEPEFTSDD
Description: (§1) Interaction between the TPL-2 C-terminus and recombinant p105 proteins was measured by surface plasmon resonance using the BIAcore system (BIAcore AB, Uppsala, Sweden; (Szabo, A., et al. (1995) Curr. Opin. Struct. biol. 5: 699-705)). The C-terminal 70 amino acids of TPL-2 (TPL-2₃₉₈₋₄₆₇) were synthesised as a biotinylated peptide (conjugated to the equivalent of Cys398 of full length TPL-2) and immobilized on a Streptavidin-coated sensor surface (Sensorchip SA, BIAcore AB). Recombinant p105 proteins were then injected at different concentrations and resonance signals monitored. Dissociation at 25° C. was measured by flushing the TPL-2/p105 complexes with HBS-P buffer (10 MM HEPES-pH7.4, 150 mM NaCl, 0.005% (v/v) polysorbate 20; BIAcore AB). Data were evaluated using BIAevaluation software, version 3.0.2.

Myc-TPL-2 = Myc-TPL-2 (Homo sapiens (Human), UniProt P41279 1-467); assay: cell-based or functional assay
Myc-TPL-2ΔC = Myc-TPL-2ΔC (Homo sapiens (Human), UniProt P41279 1-397); assay: cell-based or functional assay
[3] = biological target: T3, Myc-Raf1(CAAX) MEK kinase activity (Homo sapiens, UniProt P04049); assay: In vitro MEK kinase assay, activated Raf1; type: biochemical
T3 construct: CAAX membrane-targeting motif (C); made in house

HA-p105(369-969) = biological target: T4, HA-p105(369-969) (Homo sapiens (Human), UniProt P19838 368-968); assay: co-expression in HEK293 cells, isolation of the complex from lysates
T4 construct: also called p105?N
T4 sequence: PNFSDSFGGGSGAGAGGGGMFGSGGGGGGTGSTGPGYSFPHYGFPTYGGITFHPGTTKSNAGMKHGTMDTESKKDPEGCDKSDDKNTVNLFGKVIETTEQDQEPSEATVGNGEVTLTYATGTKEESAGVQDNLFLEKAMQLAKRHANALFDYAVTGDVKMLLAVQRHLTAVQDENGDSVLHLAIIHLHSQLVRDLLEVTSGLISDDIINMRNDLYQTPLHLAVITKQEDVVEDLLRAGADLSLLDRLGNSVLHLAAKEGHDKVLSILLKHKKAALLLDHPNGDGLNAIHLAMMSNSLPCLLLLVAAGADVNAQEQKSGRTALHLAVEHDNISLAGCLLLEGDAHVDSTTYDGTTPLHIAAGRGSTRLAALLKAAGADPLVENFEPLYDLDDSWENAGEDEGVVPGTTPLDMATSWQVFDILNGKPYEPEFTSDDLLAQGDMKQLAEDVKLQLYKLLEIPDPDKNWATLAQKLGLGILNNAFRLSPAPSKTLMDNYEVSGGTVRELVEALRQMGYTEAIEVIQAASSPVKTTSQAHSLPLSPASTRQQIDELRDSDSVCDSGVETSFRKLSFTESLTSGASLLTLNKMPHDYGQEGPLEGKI

[4] = biological target: T5, Myc-TPL-2ΔC MEK kinase activity (Rattus norvegicus, UniProt Q63562); assay: In vitro MEK kinase assay with GST-MEK1(K207A) substrate, Myc-TPL-2ΔC; type: biochemical
T5 construct: TPL-2ΔC which lacks the C-terminal 70 amino acids; made in house; host or cells: HEK 293 cells, transient transfection, anti-Myc immunoprecipitation
Description: Myc-TPL-2 or Myc-TPL-2ΔC were isolated by immunoprecipitation from lysates of transiently transfected 293 cells, as described above. immunoprecipitates were washed four times in Buffer A, followed by two washes in kinase buffer (50 mM Tris-pH7.5, 150 mM NaCl, 5 mM β-glycerophosphate, 2 mM dithiothreitol, 0.1 mM sodium vanadate, 10 mM MgCl2, 1 mM EGTA, 0.01% Brij35). Beads were then resuspended in 50μl of kinase buffer plus the indicated amounts of recombinant p105 protein and incubated at 4° C. for 30 min. […] The supernatant was removed, mixed with an equal volume of 2×sample buffer, Western blotted after 8%-acrylamide SDS-PAGE and probed with anti-phospho-MEK-½ antibody. Immunoprecipitated Myc-TPL-2 or Myc-TPL-2ΔC was eluted with Laemlli sample buffer from the remaining anti-Myc mAb beads and quantified by Western blotting.
(5.6.c) The inhibition of TPL-2 MEK kinase activity by p 105498-969 may be more efficient than the isolated p105 DD as the former protein contains a binding site for the TPL-2 C-terminus. It was, therefore, interesting to determine the sensitivity of TPL2ΔC catalytic activity to inhibition by p105. The specific activity of Myc-TPL-2ΔC, isolated by immunoprecipitation from transfected 293 cell lysates, was modestly (approximately 2-3 fold) increased relative to wild type Myc-TPL-2.

[5] = biological target: T6, TPL-2 C-terminus (TPL-2398-467 peptide) (Rattus norvegicus, UniProt Q63562); assay: Surface plasmon resonance (BIAcore) binding to immobilized TPL-2 C-terminal peptide; settings: biotinylated TPL-2398-467 on Streptavidin sensor surface, 25° C.
T6 construct: a synthetic peptide corresponding to the C-terminus of TPL-2 (residues 398-467); made in house; host or cells: chemical peptide synthesis
Description: as §1, with “(TPL-2398-467)” for “(TPL-2₃₉₈₋₄₆₇)”
(5.3.b) In order to obtain corroborating evidence for the TPL-2 C-terminus binding site on p105, surface plasmon resonance experiments were carried out using the panel of recombinant p105 proteins including p105 1-969, p105 498-969, p105 498-806, p105 497-782 and p105 541-802.

T6 sequence (Q63562 398-467): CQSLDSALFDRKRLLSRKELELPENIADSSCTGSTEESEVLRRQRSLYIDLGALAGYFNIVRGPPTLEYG
Chain of Myc-TPL-2ΔC (P41279 1-397, stated change not applied): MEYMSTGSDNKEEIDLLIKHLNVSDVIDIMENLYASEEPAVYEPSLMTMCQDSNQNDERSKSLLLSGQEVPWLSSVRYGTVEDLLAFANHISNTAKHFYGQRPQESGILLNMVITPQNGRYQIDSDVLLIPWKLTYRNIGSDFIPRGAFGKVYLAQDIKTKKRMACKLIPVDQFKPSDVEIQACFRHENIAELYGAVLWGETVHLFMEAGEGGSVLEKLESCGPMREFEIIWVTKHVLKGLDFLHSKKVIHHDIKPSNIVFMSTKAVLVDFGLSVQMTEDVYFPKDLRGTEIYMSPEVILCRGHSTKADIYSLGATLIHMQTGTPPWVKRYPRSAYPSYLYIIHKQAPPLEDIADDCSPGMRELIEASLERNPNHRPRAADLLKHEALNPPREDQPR
T5 sequence (Q63562 1-397, stated change not applied): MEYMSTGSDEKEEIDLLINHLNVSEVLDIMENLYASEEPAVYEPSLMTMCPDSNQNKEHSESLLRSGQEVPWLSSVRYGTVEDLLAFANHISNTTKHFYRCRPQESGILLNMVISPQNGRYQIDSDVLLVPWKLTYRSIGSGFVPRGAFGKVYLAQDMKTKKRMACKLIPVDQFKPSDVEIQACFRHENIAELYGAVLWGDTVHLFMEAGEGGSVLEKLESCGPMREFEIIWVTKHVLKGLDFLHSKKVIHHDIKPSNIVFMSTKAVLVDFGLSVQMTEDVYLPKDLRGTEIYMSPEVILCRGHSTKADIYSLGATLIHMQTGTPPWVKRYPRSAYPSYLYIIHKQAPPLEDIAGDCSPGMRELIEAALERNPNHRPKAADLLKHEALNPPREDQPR

Molecule: TPL-2ΔC (from UniProt P41279 1-397)
- NF-κB-dependent luciferase reporter gene in Jurkat T cells [1]: 12 fold

B1: endogenous TPL-2 (mouse 3T3 fibroblasts) (enzyme, UniProt Q07174 1-467, looked up)
chain: MEYMSTGSDEKEEIDLLIKHLNVSEVIDIMENLYASEEPGVYEPSLMTMYPDSNQNEERSESLLRSGQEVPWLSSVRYGTVEDLLAFANHVSNMTKHFYGRRPQECGILLNMVISPQNGRYQIDSDVLLVPWKLTYRNIGSGFVPRGAFGKVYLAQDMKTKKRMACKLIPIDQFKPSDVEIQACFRHENIAELYGAVLWGDTVHLFMEAGEGGSVLEKLESCGPMREFEIIWVTKHILKGLDFLHSKKVIHHDIKPSNIVFMSTKAVLVDFGLSVKMTEDVYLPKDLRGTEIYMSPEVILCRGHSTKADIYSLGATLIHMQTGTPPWVKRYPRSAYPSYLYIIHKQAPPLEDIAGDCSPGMRELIEAALERNPNHRPKAADLLKHEALNPPREDQPRCQSLDSALFERKRLLSRKELQLPENIADSSCTGSTEESEVLRRQRSLYIDLGALAGYFNIVRGPPTLEYG
- binding result [2]: binds

B2: biotinylated TPL-2398-467 peptide (peptide)
peptide: C(Biotin)TSLDSALLERKRLLSRKELELPENIADSSCTGSTEESEMLKRQRSLYIDLGALAGYFNLVRGPPTLEYG
notes: Immobilized on a streptavidin-coated BIAcore sensor surface; also called TPL-2 peptide; TPL-2 C-terminus
- binding result (recombinant p105 541-802): no binding

B3: recombinant p105498-969 protein (other)
chain: QDNLFLEKAMQLAKRHANALFDYAVTGDVKMLLAVQRHLTAVQDENGDSVLHLAIIHLHSQLVRDLLEVTSGLISDDIINMRNDLYQTPLHLAVITKQEDVVEDLLRAGADLSLLDRLGNSVLHLAAKEGHDKVLSILLKHKKAALLLDHPNGDGLNAIHLAMMSNSLPCLLLLVAAGADVNAQEQKSGRTALHLAVEHDNISLAGCLLLEGDAHVDSTTYDGTTPLHIAAGRGSTRLAALLKAAGADPLVENFEPLYDLDDSWENAGEDEGVVPGTTPLDMATSWQVFDILNGKPYEPEFTSDDLLAQGDMKQLAEDVKLQLYKLLEIPDPDKNWATLAQKLGLGILNNAFRLSPAPSKTLMDNYEVSGGTVRELVEALRQMGYTEAIEVIQAASSPVKTTSQAHSLPLSPASTRQQIDELRDSDSVCDSGVETSFRKLSFTESLTSGASLLTLNKMPHDYGQEGPLEGKI
- IC50 of inhibition of TPL-2 MEK kinase activity (phosphorylation of GST-MEK1(K207A) in vitro) (Myc-TPL-2): 90 nM
- IC50 of inhibition of TPL-2ΔC MEK kinase activity in vitro (Myc-TPL-2ΔC): 1000 nM
- effect on Myc-Raf1(CAAX) MEK kinase activity [3]: unaffected

B4: COT(131-411) (enzyme, not shown: small tags and cut ends)
chain: PWKLTYRNIGSDFIPRGAFGKVYLAQDIKTKKRMACKLIPVDQFKPSDVEIQACFRHENIAELYGAVLWGETVHLFMEAGEGGSVLEKLESCGPMREFEIIWVTKHVLKGLDFLHSKKVIHHDIKPSNIVFMSTKAVLVDFGLSVQMTEDVYFPKDLRGTEIYMSPEVILCRGHSTKADIYSLGATLIHMQTGTPPWVKRYPRSAYPSYLYIIHKQAPPLEDIADDCSPGMRELIEASLERNPNHRPRAADLLKHEALNPPREDQPRCTSLDSALLERKRL
notes: also called TPL-2 (131-411)
- binding result (HA-p105(369-969)): binds

B5: TPL-2398-467 peptide: synthetic peptide corresponding to the C-terminal 70 amino acids of TPL-2 (peptide)
peptide: CTSLDSALLERKRLLSRKELELPENIADSSCTGSTEESEMLKRQRSLYIDLGALAGYFNLVRGPPTLEYG
- effect on TPL-2ΔC in vitro MEK kinase activity [4]: not found to affect

B6: p105541-802: recombinant p105 protein, residues 541-802 (protein)
chain: T2 sequence
- binding to the TPL-2 peptide (affinity constants) [5]: did not detectably bind
